The results in this text go back to patent publication US20040054131A1 (CHIRON, published 2004).

B3: FGFR1c extracellular domain-IgG fusion protein (Fc fusion, human, UniProt P11362 22-377, looked up)
chain: RPSPTLPEQAQPWGAPVEVESFLVHPGDLLQLRCRLRDDVQSINWLRDGVQLAESNRTRITGEEVEVQDSVPADSGLYACVTSSPSGSDTTYFSVNVSDALPSSEDDDDDDDSSSEEKETDNTKPNRMPVAPYWTSPEKMEKKLHAVPAAKTVKFKCPSSGTPNPTLRWLKNGKEFKPDHRIGGYKVRYATWSIIMDSVVPSDKGNYTCIVENEYGSINHTYQLDVVERSPHRPILQAGLPANKTVALGSNVEFMCKVYSDPQPHIQWLKHIEVNGSKIGPDNLPYVQILKTAGVNTTDKEMEVLHLRNVSFEDAGEYTCLAGNSIGLSHHSAWLTVLEALEERPAVMTSPLYLEI
notes: range 1-377; also called FGFR-IgG; FGFR ECD; not shown: Fc region of human IgG1

In experiment [1] the target is FGF receptor (FGFR) on Swiss 3T3 cells. Nature of the experiment: cell-based or functional assay.
Experiment [2] has as its target B3. The experiment is described as follows: BIAcore real-time kinetic analysis, immobilized FGFR1c ECD, no heparin; approximate apparent affinity. The procedure: C19 peptide with an intrapeptide disulfide bond was synthesized, purified by HPLC, and characterized by mass spectroscopy. C19junΔhep protein was prepared by changing human c-jun residues Arg276, Arg279, Lys285, and Lys288 in the leucine zipper domain to glutamines. […] The extracellular ligand-binding domain of human FGFR Ic (residues 1-377) and human erythropoietin receptor (residues 1-250) were fused to the Fe region of human IgGI, expressed in baculovirus and purified by protein A affinity chromatography. […] PDGF receptor Fc fusion protein was from R&D Systems.

The target in experiment [3] is T1, F12 phagemid (F12 clone peptide displayed on M13 p8) (bacteriophage M13).
T1 construct: Assayed as whole phagemid particles captured by anti-M13 antibody; The frame A-X3-C-X10-C-X3-(GGS)2GG-p8 is inferred from the 18mer two-cysteine pattern of F12; not shown: M13 p8 coat protein, peptide fused to its N-terminus
The experiment is described as follows: displacement of Europium-labeled FGFR-IgG by unlabeled FGFR-IgG from F12 phagemid captured on anti-M13 antibody (time-resolved fluorescence). The procedure:
Nunc Maxisorp 96-well plates were coated with […] anti-M13 antibody in […] 50 mM Na₂CO₃ pH 9.6 and blocked using the conditions described in Example 2. Phagemid (˜10¹¹ cfu) were applied to wells in binding buffer for 1h and washed 6 times with PBS, 0.05% Tween 20, and 2 times with Delphia Wash Buffer (E&G Wallac). […] Wells were washed 8× in Delphia Wash Buffer, treated with 100 μL of Delphia Enhancer Solution and fluorescence measured. IC₅₀ values were determined from four-parameter fits to displacement plots.

The target of experiment [4] is B3. The experiment is described as follows: deletion mutant analysis; method not stated.

Bridges are numbered along the chain shown (N, C = ends). Where no end group is shown, it is not given here.

The IC50 is the concentration at which inhibition is half-maximal. A high value points to a need for much substance.

B1: C19-jun fusion protein (designed binder)
chain: MAESGDDYCVLVFTDSAWTKICDWSHFRNGPGGGSGGGSGGGSGGGSGGGSRCGGRIARLEEKVKTLKAQNSELASTANMLREQVAQLKQKVMNHGGCGGSGGHHHHHH
notes: also called Clone 19-jun protein
In the case of B1, the “EC50 of mitogenesis (BrdU incorporation) in Swiss 3T3 cells with 15 U/ml heparin” value in experiment [1] turned out to be 0.24 nM. Moreover, in experiment [2], the Kd amounted to 10 nM.

B2: C19junΔhep (designed binder)
chain: MAESGDDYCVLVFTDSAWTKICDWSHFRNGPGGGSGGGSGGGSGGGSGGGSRCGGQIAQLEEKVQTLQAQNSELASTANMLREQVAQLKQKVMNHGGCGGSGGHHHHHH
notes: also called C19jun?hep; C19junahep
Take B2: in experiment [2], the Kd was 10 nM.
In experiment [3], B3 registered an IC50 of roughly 12 nM.

B4: C19 synthetic peptide (peptide)
peptide: AESGDDYCVLVFTDSAWTKICDWSHFRN
modifications: disulfide 8-21 (inferred)
notes: also called C19 peptide; C19 clone
For the molecule B4, in experiment [2], the Kd was 400 nM.

B5: C19 with truncation of the C-terminal 7 amino acids (peptide)
peptide: AESGDDYCVLVFTDSAWTKIC
As to B5, the “fold loss of affinity against untruncated C19” value in experiment [4] was roughly 15 fold.
